Reference: publication PMC10538476

Target: Human macrophage galactose-type lectin (MGL) isoform 2 extracellular domain (human)
Experiment: SAXS; MGL-ECD at 1 mg/mL in 25 mM Tris pH 8, 150 mM NaCl, 4 mM CaCl2, 25°C; ESRF BM29 beamline; oligomeric state from the estimated molecular weight

Substance: Human macrophage galactose-type lectin (MGL) isoform 2 extracellular domain (domain or fragment)
- stoichiometry N: 3
